Where no end group is shown, it is not given here.
T1: PS2-loop D bait (LexA fusion, divergent region of the PS2 loop) (human, also: N-terminal LexA (pEG202) fusion, limits and linker not given here)
T1 construct: Range 301-319 is inferred from loop B being divided into loop C (31 aa) and loop D; not shown: LexA moiety of pEG202, NH2-terminal of the bait
T1 chain: TVGMAKLDPSSQGALQLPY


How the values were obtained:
[1] = molecular target: full-length human presenilin 2 (PS2) expressed in HeLa cells (human, UniProt P49810 1-448); assay: cell-based or functional assay
[2] = molecular target: T2, PS2-C term bait (LexA fusion, COOH-terminal sequence of PS2 downstream of the eighth TMD) (human); assay: yeast two-hybrid liquid beta-galactosidase assay
T2 construct: also called PS2-COOH-terminal construct; PS2-COOH-terminal domain; not shown: LexA moiety of pEG202, NH2-terminal of the bait
T2 sequence (chain, as listed by the source limits assumed): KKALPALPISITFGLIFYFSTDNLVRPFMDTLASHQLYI
Protocol: (§1) All PCR-amplified regions were digested with EcoRI and XhoI, cloned into pEG202, and confirmed by DNA sequencing. These various baits were transformed into EGY48 and found by immunoblotting of yeast extracts to express appropriately sized lexA-PS fusion polypeptides. Three isolates from yeast transformed with the calmyrin in pJG4-5 (clone 7) plus each PS bait or the control lamin bait were assayed for β-galactosidase enzyme activity in liquid cultures using ONPG (O-nitrophenyl β-D-galactopyranoside) as a substrate (Reynolds and Lundblad, 1989).
To quantify the binding specificity of calmyrin to the PS2-loop and to determine if this protein also interacts with the PS1 loop which is 45% identical in amino acid sequence, the galactosidase activity was measured in yeast liquid assays.

[3] = molecular target: T3, PS1-loop C bait (LexA fusion, region of PS1 corresponding to PS2-loop C) (human); assay: yeast two-hybrid liquid assay, PS1-loop C against PS2-loop C
T3 construct: not shown: LexA moiety of pEG202, NH2-terminal of the bait

[4] = molecular target: T4, PS1-loop C bait with L282I, T291A (human); assay: yeast two-hybrid liquid assay, mutated PS1-loop C bait against the T291A bait
T4 construct: Range inferred as for PS1-loop C; not shown: LexA moiety of pEG202 (N-terminal fusion partner) and the vector-encoded junction residues
Protocol: (§2) Three isolates from yeast transformed with the calmyrin in pJG4-5 (clone 7) plus each PS bait or the control lamin bait were assayed for β-galactosidase enzyme activity in liquid cultures using ONPG (O-nitrophenyl β-D-galactopyranoside) as a substrate (Reynolds and Lundblad, 1989).
(§3) Further investigation was performed to determine how these three divergent residues influenced calmyrin interaction with the PS-loop C region in yeast two-hybrid assays. […] When both proline and alanine were present together (T281P, T291A) they increased binding substantially, producing an approximately twofold higher level of binding compared with the wild-type PS2-loop bait.

[5] = molecular target: T5, PS1-loop C bait with T281P, T291A (human); assay: yeast two-hybrid liquid assay, mutated PS1-loop C bait against PS2-loop C bait
T5 construct: Range inferred as for PS1-loop C; also called (T281P, T291A) double mutant; not shown: LexA moiety of pEG202 (N-terminal fusion partner) and the vector-encoded junction residues
Protocol: as §2, §3

[6] = molecular target: T6, PS1-loop C bait with T291A (human); assay: as above
T6 construct: Range inferred as for PS1-loop C; not shown: LexA moiety of pEG202 (N-terminal fusion partner) and the vector-encoded junction residues
Protocol: as §2, §3

[7] = molecular target: T7, PS1-loop C bait with T281P (human); assay: as above
T7 construct: Range inferred as for PS1-loop C; not shown: LexA moiety of pEG202 (N-terminal fusion partner) and the vector-encoded junction residues
Protocol: as §2, §3

[8] = molecular target: T8, PS1-loop C bait with T281P, L282I (human); assay: yeast two-hybrid liquid assay, mutated PS1-loop C bait against the T281P bait
T8 construct: Range inferred as for PS1-loop C; not shown: LexA moiety of pEG202 (N-terminal fusion partner) and the vector-encoded junction residues
Protocol: as §2, §3

[9] = molecular target: T9, PS1-loop B bait (LexA fusion, region of PS1 corresponding to PS2-loop B) (human, UniProt P49768 264-315); assay: yeast two-hybrid liquid beta-galactosidase assay (ONPG), LexA bait and calmyrin prey
T9 construct: not shown: LexA moiety of pEG202, NH2-terminal of the bait
Protocol: as §1
(§4) To further map the binding site of calmyrin within the PS2-loop, two new baits were constructed which divided the loop into a conserved portion, loop C (28 out of the 31 amino acids are identical to PS1 ), and a divergent region, loop D (only 33% identity to PS1; FIG. 1).

[10] = molecular target: T10, PS2-loop C bait (LexA fusion, conserved 31-amino acid loop region of PS2) (human); assay: as above
T10 construct: Range 270-300 follows from loop start 270 and '31 amino acids'; also called wild-type PS2-loop bait; not shown: LexA moiety of pEG202, NH2-terminal of the bait
Protocol: as §1, §4

[11] = molecular target: T11, PS2-loop B bait (LexA fusion, first 50 amino acids of the PS2 loop) (human, UniProt O88777 270-319 (rat entry)); assay: as above
T11 construct: Range 270-319 follows from 'residues 270-361' and 'the first 50 amino acids of the PS2 loop'; also called PS2-loop bait; loop bait; not shown: LexA moiety of the pEG202 LexA fusion plasmid, NH2-terminal of the bait
T11 sequence (O88777 270-319 limits assumed): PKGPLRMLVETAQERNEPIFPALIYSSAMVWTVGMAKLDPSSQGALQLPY
Protocol: as §1, §4

[12] = molecular target: T3, PS1-loop C bait (LexA fusion, region of …); assay: as above
Protocol: as §1, §4

[13] = molecular target: T1, PS2-loop D bait (LexA fusion, divergent …); assay: as above
Protocol: as §1, §4

binding result [2] | interaction strength relative to the PS2-loop region [3] | binding result [4] | fold level of binding compared with the wild-type PS2-loop bait [5] | binding relative to the PS2 level [6] | interaction relative to the PS2 level [7] | fold binding compared with the T281P bait [8] | fold increase in beta-galactosidase activity over lamin B control [9] | fold increase in beta-galactosidase activity over control [10] | fold increase in beta-galactosidase activity over lamin B control [11] | fold increase in beta-galactosidase activity over control [12] | fold increase in beta-galactosidase activity over control [13] | Binder | cell death (floating HeLa cells), fold over control, on coexpression [1]
 |  |  |  |  |  |  |  |  |  |  |  | untagged full-length wild type calmyrin expressed in HeLa cells (other, myristoylated (NH2 consensus myristoylation site; 3H-myristic acid incorporated)) GGSGSRLSKELLAEYQDLTFLTKQEILLAHRRFCELLPQEQRTVESSLRAQVPFEQILSLPELKANPFKERICRVFSTSPAKDSLSFEDFLDLLSVFSDTATPDIKSHYAFRIFDFDDDGTLNREDLSRLVNCLTGEGEDTRLSASEMKQLIDNILEESDIDRDGTINLSEFQHVISRSPDFASSFKIVL | 5.9 fold
no binding | < 0.1 fraction of the PS2-loop strength | binds | ~2 fold | 0.33 fraction of the PS2 level | ~0.5 fraction of the PS2 level | 1.7 fold | 1.9 fold | 74 fold | 8.5 fold | 5.8 fold | 2.2 fold | calmyrin (calcium-binding myristoylated protein with homology to calcineurin), yeast two-hybrid prey in pJG4-5 (clone 7) (other, not shown: large carriers, Prey fusion in yeast; also called CIB; KIP) MGGSGSRLSKELLAEYQDLTFLTKQEILLAHRRFCELLPQEQRTVESSLRAQVPFEQILSLPELKANPFKERICRVFSTSPAKDSLSFEDFLDLLSVFSDTATPDIKSHYAFRIFDFDDDGTLNREDLSRLVNCLTGEGEDTRLSASEMKQLIDNILEESDIDRDGTINLSEFQHVISRSPDFASSFKIVL | 
